For assay [1], the target named is T1, Glycosylated HIV-1 gp120 (LAV) envelope glycoprotein (HIV-1 (LAV), UniProt P03377 33-516, limits assumed, glycosylated).
T1 construct: domain: gp120; Bought
As to the kind of experiment: SPR (Biacore 2000), gp120 LAV immobilized on CM5 chip, peptide in flow, 1:1 fit. A general note: Surface plasmon resonance follows binding to a sensor surface in real time, without labels.
Description: Surface plasmon resonance (SPR) experiments were done with a Biacore 2000 system (Biacore, Inc., Piscataway, N.J.). The running buffer (pH 7.4) contained 10 mM HEPES, 150 mM NaCl, 3 mM EDTA and 0.005% polysorbate 20. The immobilized proteins (gp120-LAV and CD4) were dissolved at 20 μg/ml in 10 mM sodium acetate, pH 5.0 and immobilized on a Biacore CM5 sensor chip using the amine coupling method. The chip was activated by mixing 400 mM EDC (N-ethyl-N-(3-dimethylaminopropyl)-carbodiimide hydrochloride) and 100 mM N-hydroxysuccinimide. An immobilization level of 6000 response units (RU) was attained for each bound protein. Residual reactive groups on the chip surface were blocked using 1.0 Methanolamine/HCl, pH 8.5.
In those experiments, biosensor chips containing immobilized gp120 or CD4 were perfused with a 1 μg/ml solution of the peptides, and binding was measured by surface plasmon resonance.

The target in assay [2] is T2, Recombinant HIV-1 BaL gp120 (HIV-1 (BaL)).
T2 construct: domain: gp120; also called gp120(BaL); gp120 BaL
As to the kind of experiment: SPR (Biacore 2000), gp120 BaL immobilized on chip, peptide in flow, 1:1 fit.

In assay [3] the target is T3, Recombinant human soluble CD4 (full-length 45 kDa glycosylated ectodomain) (human, UniProt P01730 26-396).
T3 construct: extracellular domain; Immobilized on a CM5 chip by amine coupling
In words: SPR (Biacore 2000), soluble CD4 immobilized on CM5 chip, peptide in flow, 1:1 fit.

Bridges are numbered along the chain shown (N, C = ends).

B1: Retrocyclin-1 (RC-100) (peptide)
peptide: cyclo(GICRCICGRGICRCICGR)
modifications: disulfide 7-12, 5-14, 3-16
SMILES: CC[C@H](C)[C@@H]1NC(=O)CNC(=O)[C@H](CCCNC(=N)N)NC(=O)CNC(=O)[C@@H]2CSSC[C@H](NC1=O)C(=O)N[C@@H](CCCNC(=N)N)C(=O)N[C@H]1CSSC[C@H](NC(=O)[C@H](CCCNC(=N)N)NC(=O)[C@@H]3CSSC[C@H](NC(=O)[C@H]([C@@H](C)CC)NC1=O)C(=O)NCC(=O)N[C@@H](CCCNC(=N)N)C(=O)NCC(=O)N[C@@H]([C@@H](C)CC)C(=O)N3)C(=O)N[C@@H]([C@@H](C)CC)C(=O)N2
notes: Made by solid phase synthesis, then oxidized and cyclized; also called Retro1
The Kd is the constant that tells how readily two partners part at equilibrium. On to B1, for which the Kd in assay [1] amounted to 35.4 nM; in assay [2] it was 29.2 nM; in assay [3] it was 31 nM.

B2: RC-101 (R9K-Retrocyclin) (peptide)
peptide: cyclo(GICRCICGKGICRCICGR)
modifications: disulfide (positions not given here)
notes: Synthetic cyclic congener of retrocyclin; It was unlabelled in the SPR experiments
For the molecule B2, the equilibrium dissociation constant (Kd) worked out at 31.2 nM in assay [1], 20.5 nM in assay [2] and 28.6 nM in assay [3].

(Values after patent US20090264344A1 (University of California, published 2009).)
